The results in this text go back to ChEMBL document CHEMBL1122090, “Species- or isozyme-specific enzyme inhibitors. 7. Selective effects in inhibitions of rat adenylate kinase isozymes by adenosine 5'-phosphate derivatives” (J Med Chem, 1982).

Substrate in series [1]: Nc1nc(Cl)nc2c1ncn2[C@@H]1O[C@H](COP(=O)(O)O)[C@@H](O)[C@H]1O
Briefly: (§1) Concentration of compound for half-maximal velocity to Adenylate kinase M isoenzyme.

Substrate in series [2]: Nc1ncnc2c1ncn2[C@@H]1O[C@H](COP(=O)(O)O)[C@@H](O)[C@H]1O
Described as §1.

Substrate in series [3]: CNc1nc(N)c2ncn([C@@H]3O[C@H](COP(=O)(O)O)[C@@H](O)[C@H]3O)c2n1
The description is as §1.

Substrate in series [4]: Nc1nc(N)c2ncn([C@@H]3O[C@H](COP(=O)(O)O)[C@@H](O)[C@H]3O)c2n1
The description is as §1.

Substrate in series [5]: Nc1ncnc2c1ncn2[C@@H]1O[C@H](CCP(=O)(O)O)[C@@H](O)[C@H]1O
The description is as §1.

Substrate in series [6]: CN(C)c1nc(N)c2ncn(C3O[C@H](COP(=O)(O)O)[C@@H](O)[C@H]3O)c2n1
The series is described as §1.

Substrate in series [7]: C[C@H](OP(=O)(O)O)[C@H]1OC(n2cnc3c(N)ncnc32)[C@H](O)[C@@H]1O
The description is as §1.

Substrate in series [8]: C[C@@H]1[C@H](O)[C@@H](COP(=O)(O)O)O[C@H]1n1cnc2c(N)ncnc21
The series is described as §1.

Substrate in series [9]: CCNc1nc(N)c2ncn([C@@H]3O[C@H](COP(=O)(O)O)[C@@H](O)[C@H]3O)c2n1
The description is as §1.

Substrate in series [10]: Nc1ncnc2c1ncn2[C@@H]1O[C@H](/C=C/P(=O)(O)O)[C@@H](O)[C@H]1O
The series is described as §1.

Substrate in series [11]: Nc1nc(Cl)nc2c1ncn2[C@@H]1O[C@H](COP(=O)(O)O)[C@@H](O)[C@H]1O
Put plainly: (§2) Concentration for half-maximal velocity to Adenylate kinase III.

Substrate in series [12]: Nc1ncnc2c1ncn2[C@@H]1O[C@H](COP(=O)(O)O)[C@@H](O)[C@H]1O
The description is as §2.

Substrate in series [13]: CNc1nc(N)c2ncn([C@@H]3O[C@H](COP(=O)(O)O)[C@@H](O)[C@H]3O)c2n1
The series is described as §2.

Substrate in series [14]: Nc1nc(N)c2ncn([C@@H]3O[C@H](COP(=O)(O)O)[C@@H](O)[C@H]3O)c2n1
Described as §2.

Substrate in series [15]: Nc1ncnc2c1ncn2[C@@H]1O[C@H](CCP(=O)(O)O)[C@@H](O)[C@H]1O
The description is as §2.

Substrate in series [16]: C[C@H](OP(=O)(O)O)[C@H]1OC(n2cnc3c(N)ncnc32)[C@H](O)[C@@H]1O
The series is described as §2.

Substrate in series [17]: C[C@@H]1[C@H](O)[C@@H](COP(=O)(O)O)O[C@H]1n1cnc2c(N)ncnc21
Described as §2.

Substrate in series [18]: CCC[C@H](OP(=O)(O)O)[C@H]1OC(n2cnc3c(N)ncnc32)[C@H](O)[C@@H]1O
The series is described as §2.

Substrate in series [19]: CCNc1nc(N)c2ncn([C@@H]3O[C@H](COP(=O)(O)O)[C@@H](O)[C@H]3O)c2n1
The description is as §2.

Substrate in series [20]: Nc1ncnc2c1ncn2[C@@H]1O[C@H](/C=C/P(=O)(O)O)[C@@H](O)[C@H]1O
The series is described as §2.

B1: Adenylate kinase isoenzyme 1 (Rattus norvegicus), P39069 (protein)
chain: MEDKLKKAKIIFVVGGPGSGKGTQCEKIVQKYGYTHLSTGDLLRAEVSSGSSRGKMLSSIMEKGELVPLETVLDMLRDAMLAKVDSSNGFLIDGYPREVKQGEEFERKIAQPTLLLYVDAGPETMTQRLLKRGETSGRVDDNEETIKKRLETYYKATEPVISFYDKRGIVRKVNAEGSVDTVFSQVCTYLDSLK
Take B1: the Michaelis-Menten constant (Km) (as a rule, the substrate concentration at which the rate is half of its maximum) in series [1] stood at 2700 µM; in series [2], 580 µM; in series [3], 2900 µM; in [4], 3500 µM; in series [5] it was 4200 µM; in series [6], 7500 µM. The Km in [7] worked out at 2000 µM; in [8] it was 5500 µM; in [9], 4200 µM; in series [10], 2000 µM.

B2: GTP:AMP phosphotransferase AK3, mitochondrial (Rattus norvegicus), P29411 (protein)
chain: MGASGRLLRAVIMGAPGSGKGTGSSRITKHFELKHLSSGDLLRQNMLQGTEIAVLAKSFIDQGKLIPDDDMTRLALHELKNLTQCSWLLDGFPRTLPQAEALDRVYQIDTVINLNVPFEVIKLRLTARWIHPASGRVYNIEFNPPKTVGIDDLTGEPLIQREDDKPETVIKRLKAYEAQTEPVLQYYQKKGVLETFSGTETNKIRPHVYSFLQMKVPETIQKASVTP
Take B2: the Km in series [11] was determined as 1600 µM; in [12], 80 µM; in [13] it was 3700 µM; in series [14] it was 1900 µM; in [15], 2200 µM; in series [16], 1100 µM. Moreover, the Km in series [17] was found to be 790 µM; in series [18], 830 µM; in series [19], 5400 µM; in series [20] it was 1400 µM.
